Article doi:10.1101/2025.10.20.683411 (bioRxiv, 2025)

What was measured:
hNup153 (aa875-1475) = target: T1, hNup153 (aa875-1475) (human, UniProt P49790 875-1475, fluorescein-5-maleimide label (labelled protein mixed with unlabelled protein)); test: fluorescence microscopy of particles formed by mixed purified labelled proteins
T1 sequence: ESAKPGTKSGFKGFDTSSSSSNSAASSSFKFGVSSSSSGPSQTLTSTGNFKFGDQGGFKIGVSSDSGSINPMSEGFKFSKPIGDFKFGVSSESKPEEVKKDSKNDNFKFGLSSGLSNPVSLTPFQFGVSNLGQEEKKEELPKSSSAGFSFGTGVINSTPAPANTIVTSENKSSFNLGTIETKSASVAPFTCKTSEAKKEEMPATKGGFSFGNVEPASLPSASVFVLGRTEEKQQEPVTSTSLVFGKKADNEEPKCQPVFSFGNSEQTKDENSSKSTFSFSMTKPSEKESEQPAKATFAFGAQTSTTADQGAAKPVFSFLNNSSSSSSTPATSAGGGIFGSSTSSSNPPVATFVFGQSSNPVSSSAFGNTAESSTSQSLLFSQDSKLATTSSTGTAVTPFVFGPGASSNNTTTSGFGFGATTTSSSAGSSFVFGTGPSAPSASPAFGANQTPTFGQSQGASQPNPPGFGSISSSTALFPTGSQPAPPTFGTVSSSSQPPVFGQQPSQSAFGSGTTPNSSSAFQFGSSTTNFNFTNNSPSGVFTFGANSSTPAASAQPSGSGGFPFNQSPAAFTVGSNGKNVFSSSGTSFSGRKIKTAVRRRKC

yNup100FG (aa1-580) = yNup100FG (aa1-580) (yeast, UniProt Q02629 1-580, fluorescein-5-maleimide label (labelled protein mixed with unlabelled protein)); test: as above
yNup116FG (aa1-725) = yNup116FG (aa1-725) (yeast, UniProt Q02630 1-725, fluorescein-5-maleimide label (labelled protein mixed with unlabelled protein)); test: as above
[1] = target: the molecule itself; test: as above
[2] = target: the molecule itself; test: fluorescence microscopy of particles formed by one purified labelled protein

Measured: binding result

B1: DNAJB8 (natural protein, human)
chain: MANYYEVLGVQASASPEDIKKAYRKLALRWHPDKNPDNKEEAEKKFKLVSEAYEVLSDSKKRSLYDRAGCDSWRAGGGASTPYHSPFDTGYTFRNPEDIFREFFGGLDPFSFEFWDSPFNSDRGGRGHGLRGAFSAGFGEFPAFMEAFSSFNMLGCSGGSHTTFSSTSFGGSSSGSSGFKSVMSSTEMINGHKVTTKRIVENGQERVEVEEDGQLKSVTVNGKEQLKWMDSKC
modifications: Alexa Fluor 594 C5-maleimide label (labelled protein mixed with unlabelled protein)
not listed: [2]
binds: all other assays above

B2: DNAJB6 isoform b, wildtype (natural protein)
chain: not shown
modifications: Alexa Fluor 594 C5-maleimide label (labelled protein mixed with unlabelled protein)
not listed: [1]
binds: all other assays above

B3: DNAJB2 isoform a (natural protein, human)
chain: MASYYEILDVPRSASADDIKKAYRRKALQWHPDKNPDNKEFAEKKFKEVAEAYEVLSDKHKREIYDRYGREGLTGTGTGPSRAEAGSGGPGFTFTFRSPEEVFREFFGSGDPFAELFDDLGPFSELQNRGSRHSGPFFTFSSSFPGHSDFSSSSFSFSPGAGAFRSVSTSTTFVQGRRITTRRIMENGQERVEVEEDGQLKSVTINGVPDDLALGLELSRREQQPSVTSRSGGTQVQQTPASCPLDSDLSEDEDLQLAMAYSLSEMEAAGKKPADVFC
modifications: Alexa Fluor 594 C5-maleimide label (labelled protein mixed with unlabelled protein)
not listed: [2]
binds: all other assays above
